Measured values: paper doi:10.1101/591263

test system: dSpCas9-GFP (Streptococcus pyogenes); experiment: MST; details: MST: 20 mM HEPES pH 7.5, 150 mM KCl, 1 mM DTT, 10 mM MgCl2

Substance	Kd
EMX1 off-target (30 bp) with EMX1 sgRNA	27.2 nM
VEGFA3 target (30 bp) with VEGFA3 sgRNA	49.6 nM
VEGFA3 off-target (30 bp) with VEGFA3 sgRNA	142 nM
EMX1 target (30 bp) with EMX1 sgRNA	10.9 nM
